Data from patent US20240034757A1 (OXFORD UNIVERSITY INNOVATION, published 2024).
Numbering of substitutions follows the chain as printed. Where two headings read alike, the source gives them in different places.

T1: CCL5_HUMAN (human, UniProt P13501 24-91)
T1 sequence: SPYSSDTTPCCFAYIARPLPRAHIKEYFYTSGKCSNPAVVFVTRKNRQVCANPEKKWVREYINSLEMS

T2: CCL23_HUMAN (human, UniProt P55773 22-120)
T2 sequence: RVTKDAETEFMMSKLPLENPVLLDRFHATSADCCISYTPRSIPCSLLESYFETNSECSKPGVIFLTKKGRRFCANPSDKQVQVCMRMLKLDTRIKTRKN

T3: CCL21_HUMAN (human, UniProt O00585 24-134)
T3 sequence: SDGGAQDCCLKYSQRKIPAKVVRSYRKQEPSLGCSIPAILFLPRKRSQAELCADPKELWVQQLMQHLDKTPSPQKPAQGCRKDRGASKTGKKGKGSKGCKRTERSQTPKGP

T4: P1174_IXORI (Ixodes ricinus, UniProt V5I3C5 28-104)
T4 sequence: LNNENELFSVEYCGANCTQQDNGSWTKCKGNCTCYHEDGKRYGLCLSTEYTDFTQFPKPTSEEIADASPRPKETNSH

T5: P1134_IXORI (Ixodes ricinus, UniProt A0A0K8RAI0 32-135)
T5 sequence: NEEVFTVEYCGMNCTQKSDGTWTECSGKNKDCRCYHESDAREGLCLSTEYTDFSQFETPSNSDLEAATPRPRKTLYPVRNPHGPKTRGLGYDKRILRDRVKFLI

T6: P1096_IXORI (Ixodes ricinus, UniProt A0A0K8RKE4 24-114)
T6 sequence: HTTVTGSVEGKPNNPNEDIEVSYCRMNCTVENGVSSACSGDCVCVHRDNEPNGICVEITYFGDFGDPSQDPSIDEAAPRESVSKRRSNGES

T7: P1166_IXORI (Ixodes ricinus, UniProt A0A0K8RE99 25-110)
T7 sequence: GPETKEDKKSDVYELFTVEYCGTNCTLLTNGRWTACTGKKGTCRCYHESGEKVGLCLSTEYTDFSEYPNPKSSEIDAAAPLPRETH

T8: P1132_IXORI (Ixodes ricinus, UniProt V5GZ08 29-106)
T8 sequence: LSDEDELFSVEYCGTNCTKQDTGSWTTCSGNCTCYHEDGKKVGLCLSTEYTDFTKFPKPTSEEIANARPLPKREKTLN

T9: P1127_IXORI (Ixodes ricinus, UniProt A0A0K8RJ67 29-108)
T9 sequence: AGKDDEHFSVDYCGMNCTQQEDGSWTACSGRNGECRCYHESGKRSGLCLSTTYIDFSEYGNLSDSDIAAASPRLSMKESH

T10: P1168_IXORI (Ixodes ricinus, UniProt A0A0K8RCU3 25-106)
T10 sequence: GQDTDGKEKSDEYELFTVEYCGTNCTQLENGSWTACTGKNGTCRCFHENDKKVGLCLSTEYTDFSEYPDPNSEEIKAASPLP

T11: P1170_IXORI (Ixodes ricinus, UniProt A0A0K8RD51 29-102)
T11 sequence: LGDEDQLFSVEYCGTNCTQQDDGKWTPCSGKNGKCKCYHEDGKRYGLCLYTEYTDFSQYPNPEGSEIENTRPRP

T12: P1156_IXORI (Ixodes ricinus, UniProt V5HBW0 29-108)
T12 sequence: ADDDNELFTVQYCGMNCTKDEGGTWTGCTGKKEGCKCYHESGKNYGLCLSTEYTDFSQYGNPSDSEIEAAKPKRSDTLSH

T13: P1229_IXORI (Ixodes ricinus, UniProt A0A0K8R4R9 32-108)
T13 sequence: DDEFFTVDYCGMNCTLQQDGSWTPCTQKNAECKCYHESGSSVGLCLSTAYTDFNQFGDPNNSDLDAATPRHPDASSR

T14: P1095_IXORI (Ixodes ricinus, UniProt A0A0K8RCE3 24-112)
T14 sequence: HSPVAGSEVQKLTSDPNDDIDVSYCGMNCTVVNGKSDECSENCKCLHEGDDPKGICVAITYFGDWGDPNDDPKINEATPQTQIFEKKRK

T15: P974_AMBCA (Amblyomma cajennense, UniProt A0A023FDY8 22-118)
T15 sequence: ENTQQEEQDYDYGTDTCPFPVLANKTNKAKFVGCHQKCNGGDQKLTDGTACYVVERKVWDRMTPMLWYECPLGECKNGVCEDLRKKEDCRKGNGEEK

T16: P991_AMBCA (Amblyomma cajennense, UniProt A0A023FFD0 29-136)
T16 sequence: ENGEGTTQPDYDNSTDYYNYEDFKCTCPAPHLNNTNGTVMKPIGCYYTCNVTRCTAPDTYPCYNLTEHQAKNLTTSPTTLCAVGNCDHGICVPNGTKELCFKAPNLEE

T17: P985_AMBPA (Amblyomma parvum, UniProt A0A023FT45 25-132)
T17 sequence: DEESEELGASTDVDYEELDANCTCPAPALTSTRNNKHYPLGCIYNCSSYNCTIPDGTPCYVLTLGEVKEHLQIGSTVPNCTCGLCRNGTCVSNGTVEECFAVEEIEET

T18: P672_RHIPU (Rhipicephalus pulchellus, UniProt L7MC74 22-125)
T18 sequence: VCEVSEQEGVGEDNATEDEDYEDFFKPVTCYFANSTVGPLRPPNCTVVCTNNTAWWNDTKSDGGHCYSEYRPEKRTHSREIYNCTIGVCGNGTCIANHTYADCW

T19: P546_AMBCA (Amblyomma cajennense, UniProt A0A023FBW7 22-118)
T19 sequence: T15 sequence with Q8E, E69S, D88E

T20: P467_RHIPU (Rhipicephalus pulchellus, UniProt L7M8Z8 22-127)
T20 sequence: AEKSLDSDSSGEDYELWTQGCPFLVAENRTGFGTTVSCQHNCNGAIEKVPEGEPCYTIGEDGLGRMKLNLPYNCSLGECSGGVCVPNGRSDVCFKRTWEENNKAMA

T21: P1183_AMBTR (Amblyomma triste, UniProt A0A023G9N9 26-115)
T21 sequence: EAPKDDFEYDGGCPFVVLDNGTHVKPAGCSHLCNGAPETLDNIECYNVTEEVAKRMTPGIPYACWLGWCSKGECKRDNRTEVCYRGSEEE

T22: P1180_AMBTR (Amblyomma triste, UniProt A0A023G6B6 26-116)
T22 sequence: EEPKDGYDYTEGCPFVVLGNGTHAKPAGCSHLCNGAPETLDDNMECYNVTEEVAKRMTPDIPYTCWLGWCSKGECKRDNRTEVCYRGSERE

T23: P1181_AMBMA (Amblyomma maculatum, UniProt G3MIX6 26-115)
T23 sequence: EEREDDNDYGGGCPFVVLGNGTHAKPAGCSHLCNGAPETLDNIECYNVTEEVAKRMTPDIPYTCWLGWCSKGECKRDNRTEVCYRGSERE

T24: P1182_AMBMA (Amblyomma maculatum, UniProt G3MJ83 27-115)
T24 sequence: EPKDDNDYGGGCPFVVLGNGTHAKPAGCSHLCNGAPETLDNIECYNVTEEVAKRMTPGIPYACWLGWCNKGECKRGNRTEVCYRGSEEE

T25: P983_AMBCA (Amblyomma cajennense, UniProt A0A023FFB5 22-119)
T25 sequence: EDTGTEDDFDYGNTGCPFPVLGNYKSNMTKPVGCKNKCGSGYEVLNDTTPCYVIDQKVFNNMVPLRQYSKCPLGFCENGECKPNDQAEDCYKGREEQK

T26: EVA1_RHISA (Rhipicephalus sanguineus, UniProt P0C8E7 21-114)
T26 construct: also called Evasin-1
T26 sequence: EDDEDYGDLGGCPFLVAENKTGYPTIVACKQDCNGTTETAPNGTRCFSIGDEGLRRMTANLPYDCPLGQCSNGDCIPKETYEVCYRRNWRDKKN

T27: CCL17_HUMAN (human, UniProt Q92583 24-94)
T27 sequence: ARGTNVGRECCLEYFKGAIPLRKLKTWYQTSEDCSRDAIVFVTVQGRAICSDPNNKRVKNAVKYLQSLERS

T28: CCL3_HUMAN (human, UniProt P10147 24-92)
T28 sequence: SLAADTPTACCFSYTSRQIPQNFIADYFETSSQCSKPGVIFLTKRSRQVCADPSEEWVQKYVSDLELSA

B1: P1243_AMBAM (other)
chain: RNHTEDNSTEYYDYEEARCACPARHLNNTNGTVLKLLGCHYFCNGTLCTAPDGYPCYNLTAQQVRTLTTYPNTSCAVGVCMKGTCVKNGTMEQCFKTP
B2: CXCL11_HUMAN (ligand)
chain: FPMFKRGRCLCIGPGVKAVKVADIEKASIMYPSNNCDKIEVIITLKENKGQRCLNPKSKQARLIIKKVERKNF
B3: CCL8_HUMAN (ligand, UniProt P80075 24-99, looked up)
chain: QPDSVSIPITCCFNVINRKIPIQRLESYTRITNIQCPKEAVIFKTKRGKEVCADPKERWVRDSMKHLDQIFQNLKP
B4: P1030_AMBPA (other)
chain: GPPSIPGNESIPGCGDAGTTTAPEDNPKHYGTLTDKKGCTLPIIGTWMTAVDHQHLQGTRGERRGPTGKVNLPASCRKNCHGRQEILRDGIPCRKVVGNPKGSKKHLKSGCLRGKCLAGQCVNDGRRISCYVPRNITDTEPTPGLLAE

How the values were obtained:
CCL5_HUMAN [1] = biological target: T1, CCL5_HUMAN; test: cell-based or functional assay
CCL23_HUMAN [2] = biological target: T2, CCL23_HUMAN; test: BLI
CCL21_HUMAN [3] = biological target: T3, CCL21_HUMAN; test: BLI
CCL23_HUMAN [4] = biological target: T2, CCL23_HUMAN; test: BLI; remark: listed apart in the source
CCL21_HUMAN [5] = biological target: T3, CCL21_HUMAN; test: BLI; remark: listed apart in the source
P1174_IXORI = biological target: T4, P1174_IXORI; test: BLI
P1134_IXORI = biological target: T5, P1134_IXORI; test: BLI
P1096_IXORI = biological target: T6, P1096_IXORI; test: BLI
P1166_IXORI = biological target: T7, P1166_IXORI; test: BLI
P1132_IXORI = biological target: T8, P1132_IXORI; test: BLI
P1127_IXORI = biological target: T9, P1127_IXORI; test: BLI
P1168_IXORI = biological target: T10, P1168_IXORI; test: BLI
P1170_IXORI = biological target: T11, P1170_IXORI; test: BLI
P1156_IXORI = biological target: T12, P1156_IXORI; test: BLI
P1229_IXORI = biological target: T13, P1229_IXORI; test: BLI
P1095_IXORI = biological target: T14, P1095_IXORI; test: BLI
P974_AMBCA = biological target: T15, P974_AMBCA; test: BLI
P991_AMBCA = biological target: T16, P991_AMBCA; test: BLI
P985_AMBPA = biological target: T17, P985_AMBPA; test: BLI
P672_RHIPU = biological target: T18, P672_RHIPU; test: BLI
P546_AMBCA = biological target: T19, P546_AMBCA; test: BLI
P467_RHIPU = biological target: T20, P467_RHIPU; test: BLI
P1183_AMBTR = biological target: T21, P1183_AMBTR; test: BLI
P1243_AMBAM = biological target: B1; test: BLI
P1180_AMBTR = biological target: T22, P1180_AMBTR; test: BLI
P1181_AMBMA = biological target: T23, P1181_AMBMA; test: BLI
P1182_AMBMA = biological target: T24, P1182_AMBMA; test: BLI
P983_AMBCA = biological target: T25, P983_AMBCA; test: BLI
EVA1_RHISA = biological target: T26, EVA1_RHISA; test: BLI
CCL17_HUMAN = biological target: T27, CCL17_HUMAN; test: yeast surface display FACS
CCL5_HUMAN [6] = biological target: T1, CCL5_HUMAN; test: yeast surface display FACS
CXCL12_HUMAN = CXCL12_HUMAN (human, UniProt P48061 22-89); test: yeast surface display FACS
CXCL12_HUMAN, sequence (P48061 22-89 limits assumed): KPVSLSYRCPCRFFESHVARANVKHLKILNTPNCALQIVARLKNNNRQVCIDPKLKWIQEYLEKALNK

CCL20_HUMAN = CCL20_HUMAN (human, UniProt P78556 27-96); test: yeast surface display FACS
CCL20_HUMAN, sequence (P78556 27-96 limits assumed): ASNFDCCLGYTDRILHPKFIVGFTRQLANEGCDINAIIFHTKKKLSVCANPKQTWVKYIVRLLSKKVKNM

CCL8_HUMAN = biological target: B3; test: yeast surface display FACS
CCL11_HUMAN = CCL11_HUMAN (human, UniProt P51671 24-97); test: yeast surface display FACS
CCL11_HUMAN, sequence (P51671 24-97 limits assumed): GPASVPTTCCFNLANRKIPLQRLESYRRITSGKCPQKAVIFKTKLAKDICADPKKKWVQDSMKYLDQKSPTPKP

CCL3_HUMAN = biological target: T28, CCL3_HUMAN; test: yeast surface display FACS

B1
IC50, THP1 cell migration (CCL5_HUMAN [1]): 7.87 nM | Kd (CCL23_HUMAN [2]): 6.62 nM | Kd (CCL21_HUMAN [3]): 6.54 nM | Kd (CCL23_HUMAN [4]): 6.62 nM | Kd (CCL21_HUMAN [5]): 6.54 nM

B2
binding result (P1174_IXORI): no binding (tested: 300 nM) | binding result (P1134_IXORI): no binding (tested: 300 nM) | binding result (P1096_IXORI): no binding (tested: 300 nM) | binding result (P1166_IXORI): no binding (tested: 300 nM) | binding result (P1132_IXORI): no binding (tested: 300 nM) | binding result (P1127_IXORI): no binding (tested: 300 nM) | binding result (P1168_IXORI): no binding (tested: 300 nM) | binding result (P1170_IXORI): no binding (tested: 300 nM) | binding result (P1156_IXORI): no binding (tested: 300 nM) | binding result (P1229_IXORI): no binding (tested: 300 nM) | binding result (P1095_IXORI): no binding (tested: 300 nM)

B3
Kd (P974_AMBCA): 2.58 nM | Kd (P991_AMBCA): 8.79 nM | Kd (P985_AMBPA): 6.5 nM | Kd (P672_RHIPU): 3.7 nM | Kd (P546_AMBCA): 1.3 nM | Kd (P467_RHIPU): 2.85 nM | Kd (P1183_AMBTR): 1100 nM | Kd (P1243_AMBAM): 21.9 nM | Kd (P1180_AMBTR): 3.6 nM | Kd (P1181_AMBMA): 14 nM | Kd (P1182_AMBMA): 29 nM | Kd (P983_AMBCA): 7 nM | binding result (EVA1_RHISA): no binding (tested: 600 nM)

B4
binding result (CCL17_HUMAN): binds | binding result (CCL5_HUMAN [6]): binds | binding result (CXCL12_HUMAN): binds | binding result (CCL20_HUMAN): binds | binding result (CCL8_HUMAN): binds | binding result (CCL11_HUMAN): binds | binding result (CCL3_HUMAN): binds
